Laboratory results reported in paper PMC4126857 (Structure (London, England : 1993), 2014).
Where no end group is shown, it is not given here.

T1: 6×His-ZYG-1 CPB K454E (C. elegans, UniProt Q9GT24 338-564, K454E)
T1 sequence (looked up): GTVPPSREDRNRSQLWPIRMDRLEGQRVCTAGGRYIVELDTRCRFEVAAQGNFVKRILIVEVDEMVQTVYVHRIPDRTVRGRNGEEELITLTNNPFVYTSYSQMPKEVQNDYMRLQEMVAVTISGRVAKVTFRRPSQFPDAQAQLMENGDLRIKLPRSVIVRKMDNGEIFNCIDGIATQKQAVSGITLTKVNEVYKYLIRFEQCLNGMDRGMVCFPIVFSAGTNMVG


Assays:
SAXS = biological target: the molecule itself; experiment: SAXS
6×His-ZYG-1 CPB K454E = biological target: T1, 6×His-ZYG-1 CPB K454E; experiment: pull-down

binding result (6×His-ZYG-1 CPB K454E) | Binder | stoichiometry N (SAXS)
– | ZYG-1 cryptic polo box (CPB), aa 338-564 (domain or fragment, C. elegans, UniProt Q9GT24 338-564, looked up, for crystallization: selenomethionine-substituted, lysine methylated; for MST: labelled with Monolith NT.115 Labeling Kit RED-NHS) GTVPPSREDRNRSQLWPIRMDRLEGQRVCTAGGRYIVELDTRCRFEVAAQGNFVKRILIVEVDEMVQTVYVHRIPDRTVRGRNGEEELITLTNNPFVYTSYSQMPKEVQNDYMRLQKMVAVTISGRVAKVTFRRPSQFPDAQAQLMENGDLRIKLPRSVIVRKMDNGEIFNCIDGIATQKQAVSGITLTKVNEVYKYLIRFEQCLNGMDRGMVCFPIVFSAGTNMVG | 2
binds | MEDDAPMNLCNEQFEEIEDSPIDDNDNESFYNADGDVELEEEEVHE (domain or fragment, C. elegans, UniProt P91870 1-46, looked up, also: MBP fusion) [MBP-CeSPD-2 AR (aa 1-46), WT] | –
– | Drosophila Plk4 cryptic polo box (DmPlk4 CPB), aa 383-601 (domain or fragment, UniProt O97143 383-601, looked up, for crystallization: lysine methylated; for MST: labelled with Monolith NT.115 Labeling Kit RED-NHS) RISVPPLNTKRLLPTRYKTKNAIMSILRNGEVVLEFLKFRPTYNEDRINDICRISDDGQRIIIYQPDPGRGLPVREQPPDLQIPSGDCVYNYDNLPSKHWKKYIYGARFVGLVKSKTPKVTYFSTLGKCQLMETMTDFEIRFYSGAKLLKTPSEGLKVYDRNGMLLSDYSCSESRSLIEHGNECFTHCVNISNALEVAQTKDNSCFPVTIGRRPITDVQ | 2
